Values quoted from earlier work, collected in publication PMC4113456, “Atypical Signaling and Functional Desensitization Response of MAS Receptor to Peptide Ligands” (PLoS ONE, 2014).

Target: T1, MAS (Homo sapiens, UniProt P04201)
T1 construct: expressed in transfected cells
T1 sequence (P04201 1-325): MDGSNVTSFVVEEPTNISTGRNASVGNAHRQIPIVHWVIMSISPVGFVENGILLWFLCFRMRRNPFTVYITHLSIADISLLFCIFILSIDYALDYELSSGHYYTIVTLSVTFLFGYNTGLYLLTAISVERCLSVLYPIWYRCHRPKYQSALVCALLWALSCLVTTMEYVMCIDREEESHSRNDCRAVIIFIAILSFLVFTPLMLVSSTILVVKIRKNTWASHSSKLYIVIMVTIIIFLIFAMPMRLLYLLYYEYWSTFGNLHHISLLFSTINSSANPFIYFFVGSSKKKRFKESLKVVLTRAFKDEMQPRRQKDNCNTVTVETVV
Design: method as in ref [4] (a number printed in a supplementary file, which may have a reference list of its own: not looked up in the article's list)
Settings: ref [4]; cited from earlier work

**Q.** For “Angioprotectin: physiological ligand, sequence PEVYIHPF”, which “Effect in aortic rings” value is on record?
**A.** Vasodilator effect in aortic rings
